No end group written: not given here.
T1: recombinant MCL1 (human, UniProt Q07820 1-350)
T1 chain: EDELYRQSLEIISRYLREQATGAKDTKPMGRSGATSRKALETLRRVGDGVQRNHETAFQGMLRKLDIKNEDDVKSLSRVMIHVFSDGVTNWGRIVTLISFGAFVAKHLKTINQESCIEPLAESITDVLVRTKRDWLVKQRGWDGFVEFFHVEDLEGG


Biological target: T1, recombinant MCL1
Experiment: FP

| IC50 [nM] | Binder |
| --- | --- |
| 882 | RENFEILMKLKESLELMELVPQPLVDSYRQQQQLLQR [p73TD-derived peptide α1α2] |
| 2630 | RENFEILMKLKESLELMELV [p73TD-derived peptide α1] |
| 1090 | DEDTYYLQVRGRENFEILMKLKESLELMELV-NH2 [p73TD-derived peptide β1α1] |

Source: paper PMC7641127 (2020)
